Measured values published in patent publication US7067474B1, “Agents for treating human illnesses based on β-catenin, and the production and use thereof” (Max-Delbruck-Centrum fur Molekulare Medizin, priority 1998, dated 2006).
Where no end group is shown, it is not given here.

Experiments:
β-catenin/TCF-4 complex = test: ELISA with synthetic peptides: formation of the β-catenin/TCF-4 complex; assay type: binding; conditions: synthetic TCF4 peptides, analogous to LEF-1 peptides, which inhibit specifically
β-catenin = target: T1, β-catenin (Homo sapiens, UniProt P35222); test: yeast-2-hybrid system: interaction of LEF-1 fragments with β-catenin (β-galactosidase reporter activity); assay type: binding; conditions: LEF-1 fragments as Lex-A hybrids
T1 construct: expressed in transfected cells; host or cells: yeast (two-hybrid system, Clontech)
T1 sequence (P35222 1-781): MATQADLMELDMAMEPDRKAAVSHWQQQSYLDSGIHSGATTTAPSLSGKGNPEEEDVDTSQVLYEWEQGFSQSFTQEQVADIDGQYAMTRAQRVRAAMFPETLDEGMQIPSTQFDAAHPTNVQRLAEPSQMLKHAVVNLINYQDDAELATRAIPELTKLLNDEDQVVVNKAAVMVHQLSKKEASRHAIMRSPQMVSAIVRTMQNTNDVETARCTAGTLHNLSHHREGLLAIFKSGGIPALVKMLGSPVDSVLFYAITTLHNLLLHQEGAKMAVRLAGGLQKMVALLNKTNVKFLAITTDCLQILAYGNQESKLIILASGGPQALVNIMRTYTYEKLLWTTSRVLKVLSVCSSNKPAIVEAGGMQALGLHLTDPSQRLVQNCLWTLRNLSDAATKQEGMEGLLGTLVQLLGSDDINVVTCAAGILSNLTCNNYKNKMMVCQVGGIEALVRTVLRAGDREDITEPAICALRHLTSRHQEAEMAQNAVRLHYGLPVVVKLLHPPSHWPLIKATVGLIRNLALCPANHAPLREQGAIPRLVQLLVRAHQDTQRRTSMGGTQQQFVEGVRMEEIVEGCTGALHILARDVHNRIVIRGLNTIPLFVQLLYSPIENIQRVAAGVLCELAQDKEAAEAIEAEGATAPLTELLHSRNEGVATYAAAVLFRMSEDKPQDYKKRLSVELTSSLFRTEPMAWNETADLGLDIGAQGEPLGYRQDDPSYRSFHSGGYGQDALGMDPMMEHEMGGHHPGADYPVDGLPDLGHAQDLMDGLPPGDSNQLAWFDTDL
Description: The ‘yeast-2-hybrid system’ was used for identifying the minimum binding domain (FIG. 1). It was possible to limit the minimum binding domain to the N-terminal amino acids 11–27 of LEF-1 which corresponds t) the amino acids 7–29 in TCF-4 (FIG. 2). The interaction of N-terminal LEF-1 fragments with β-catenin was detected by means of activating a lacZ reporter gene (s. example).
The interaction between the partial domains of LEF-1 and β-catenin was analyzed in the yeast-2 hybrid system by determining the activity of β-galactosidase according to information of the producer (Clontech) (FIG. 1). For this purpose the DNA coding for the N-terminal partial domains of LEF-1 was inserted into the cloning site of the Lex-A DNA binding domain which contains vector BTM 116 and checked by sequencing. The DNA fragments of LEF-1 were prepared by a polymerase chain reaction (PCR) and incubation with restriction endonucleases. The DNA coding for β-catenin was cloned into the vector pGAD424 (Clontech) for the activation domain of GAL-4 (Behrens et al. 1996). The β-galactosidase activities of independent experiments were averaged (or comparing the interaction of the hybrids.
The specificity of the interaction of the LEF-1 hybrids with β-catenin was checked by means of the β-galactosidase activity of yeasts producing the LEF hybrids and the GAL-4 activation domain without β-catenin (FIG. 1). The expression of the LEF-1 hybrids was checked in an immunoblot with yeast cell lysates by antibodies (Clontech) as against the Lex-A domain of the hybrids. Equal yeast quantities were used for preparing the lysates after determining the optical density of the cultures.
The interaction of fragments of the binding domain of LEF-1 with β-catenin was analyzed by means of the β-galactosidase reporter activity in the yeast-2-hybrid system. […] Accordingly, the minimum binding domain of LEF-1 for β-catenin consists of 17 amino acids (11–27) showing an acidic character.

[1] = target: E-cadherin amino acids Gln773-Asp884 (cytoplasmatic domain) fused to Lex-A (vector BTM 116) (UniProt P0A7C2 1-202; P09803 773-884); test: yeast 2-hybrid, β-galactosidase reporter; percent of wild type β-catenin
Description: (§1) 4. Preparation and testing of mutants of β-catenin modulating the interaction with LEF-1, APC, conductin or E-cadherin The mutagenesis of β-catenin in the armadillo repeats 3–8 was carried out by means of the "mutagenesis kit" of the company Clontech according to the producer's record and the mutants were checked by sequencing (FIG. 5). In all mutants the original amino acid was substituted by alanine. For analyzing the interactions the cDNA of human β-catenin (armadillo repeat 3 up to the C-terminal end of the protein) coding for the amino acids Leu218–Leu7 µl or its mutants was cloned into the fusion vector for the activation domain of Gal-4 (pGAD424, Clontech). The cDNA for the binding domains of the interaction partners was cloned into the Lex-A fusion vector BTM 116. To this end, the cDNA of LEF-1 for the amino acids 1–99, conductin for the amino acids Ala342–ARG465; of human APC for the amino acids His1012–Glu1215 (APC 15 amino acid repeats) and for the amino acids Ser1259Asp 1400 (APC 20 amino acid repeats) and E-cadherin for the amino acids Gin773–Asp884 (cytoplasmatic domain) were amplified with the respective primers PCR. The interaction of the Lex-A hybrids with β-catenin and its mutants was quantified by means of the β-galactosidase reporter activity in the yeast 2-hybrid system (report: "Matchmaker". Clontech) (Tab. 2 and FIG. 6).

[2] = target: T2, LEF-1 amino acids 1-99 fused to Lex-A (vector BTM 116) (UniProt P0A7C2 1-202; P27782 1-99); test: as above
T2 construct: Order of the fusion follows the vector; also called LEF-1/TCF-4
Description: as §1

[3] = target: human APC amino acids His1012-Glu1215 (APC 15 amino acid repeats) fused to Lex-A (vector BTM 116) (human); test: as above
[4] = target: human APC amino acids Ser1259-Asp1400 (APC 20 amino acid repeats) fused to Lex-A (vector BTM 116) (human); test: as above
[5] = target: conductin amino acids Ala342-Arg465 fused to Lex-A (vector BTM 116) (UniProt P0A7C2); test: as above
[6] = target: T3, β-catenin produced recombinantly in bacteria with N-terminal histidine sequence (Homo sapiens (Human), UniProt P35222 2-781); test: competition ELISA, LEF-1 coated, β-catenin in solution, detection with antibody PA2
T3 construct: Soluble partner in the ELISA (50-100 ng), detected with antibody PA2
T3 sequence: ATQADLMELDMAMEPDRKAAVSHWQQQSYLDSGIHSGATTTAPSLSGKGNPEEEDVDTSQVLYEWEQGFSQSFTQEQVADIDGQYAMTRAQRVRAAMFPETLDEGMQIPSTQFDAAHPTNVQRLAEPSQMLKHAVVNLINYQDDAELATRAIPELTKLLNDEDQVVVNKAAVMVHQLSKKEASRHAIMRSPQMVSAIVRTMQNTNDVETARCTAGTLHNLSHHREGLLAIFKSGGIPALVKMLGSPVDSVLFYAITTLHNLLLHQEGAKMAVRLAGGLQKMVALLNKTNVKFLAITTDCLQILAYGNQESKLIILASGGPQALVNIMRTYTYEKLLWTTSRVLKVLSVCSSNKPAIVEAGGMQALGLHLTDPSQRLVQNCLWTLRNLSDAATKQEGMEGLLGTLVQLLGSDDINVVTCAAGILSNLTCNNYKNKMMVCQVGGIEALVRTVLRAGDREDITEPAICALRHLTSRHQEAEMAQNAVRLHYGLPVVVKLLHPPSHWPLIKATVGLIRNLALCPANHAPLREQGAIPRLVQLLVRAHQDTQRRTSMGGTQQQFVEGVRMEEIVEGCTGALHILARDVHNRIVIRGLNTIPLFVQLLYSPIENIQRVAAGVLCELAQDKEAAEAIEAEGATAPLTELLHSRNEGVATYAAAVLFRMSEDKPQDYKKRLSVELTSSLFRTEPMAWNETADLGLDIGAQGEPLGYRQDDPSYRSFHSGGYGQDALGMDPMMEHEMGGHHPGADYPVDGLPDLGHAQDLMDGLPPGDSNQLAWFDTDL

In the case of GGDDLGANDELISFKDEGEQEEK [7–29], the “inhibition of formation of the β-catenin/TCF-4 complex” value (β-catenin/TCF-4 complex) is reported as “Analogous principles apply”.

In the case of DLGANDELISFKDE [10–23], the “inhibition of formation of the β-catenin/TCF-4 complex” value (β-catenin/TCF-4 complex) is reported as “Analogous principles apply”.

With “Met21 up to Val 56: partial domain of LEF-1 covering Met21 up to Val 56” the “Binding to β-catenin (β-galactosidase reporter activity)” value (from here on “Binding to β-catenin”) (β-catenin) was “does not show any binding activity”.

B1: human β-catenin (Leu218-Leu781) mutant His 260 to alanine, Gal-4 activation domain fusion (other, not shown: large carriers; small tags and cut ends)
chain: LHNLSHHREGLLAIFKSGGIPALVKMLGSPVDSVLFYAITTLANLLLHQEGAKMAVRLAGGLQKMVALLNKTNVKFLAITTDCLQILAYGNQESKLIILASGGPQALVNIMRTYTYEKLLWTTSRVLKVLSVCSSNKPAIVEAGGMQALGLHLTDPSQRLVQNCLWTLRNLSDAATKQEGMEGLLGTLVQLLGSDDINVVTCAAGILSNLTCNNYKNKMMVCQVGGIEALVRTVLRAGDREDITEPAICALRHLTSRHQEAEMAQNAVRLHYGLPVVVKLLHPPSHWPLIKATVGLIRNLALCPANHAPLREQGAIPRLVQLLVRAHQDTQRRTSMGGTQQQFVEGVRMEEIVEGCTGALHILARDVHNRIVIRGLNTIPLFVQLLYSPIENIQRVAAGVLCELAQDKEAAEAIEAEGATAPLTELLHSRNEGVATYAAAVLFRMSEDKPQDYKKRLSVELTSSLFRTEPMAWNETADLGLDIGAQGEPLGYRQDDPSYRSFHSGGYGQDALGMDPMMEHEMGGHHPGADYPVDGLPDLGHAQDLMDGLPPGDSNQLAWFDTDL
For B1, the “share of the interaction with wild type β-catenin in percent” value [1] was 100%, the “share of the interaction with wild type β-catenin in percent” value [2] was 50% and the share of the interaction with wild type β-catenin in percent [3] was 100%. The share of the interaction with wild type β-catenin in percent [4] was 40% and the share of the interaction with wild type β-catenin in percent [5] was 10%.

With GGDPELCATDEMIPFKDEGDPQKEK (peptide, UniProt P27782 10-34, looked up, range 10-34; the legend prints 10-34) [synthetic peptide of the minimum binding domain of LEF-1 (10-34)] the IC50 [6] was 4 µM.

B2: 11–27: LEF-1 fragment amino acids 11–27, Lex-A hybrid; minimum binding domain for β-catenin (protein)
chain: MKALTARQQEVFDLIRDHISQTGMPPTRAEIAQRLGFRSPNAAEEHLKALARKGVIEIVSGASRGIRLLQEEEEGLPLVGRVAAGEPLLAQQHIEGHYQVDPSLFKPNADFLLRVSGMSMKDIGIMDGDLLAVHKTQDVRNGQVVVARIDDEVTVKRLKKQGNKVELLPENSEFKPIVVDLRQQSFTIEGLAVGVIRNGDWLGDPELCATDEMIPFKDE
With B2 the “Binding to β-catenin” value (β-catenin) was “does not result in a loss of bond”.

B3: 11–23: LEF-1 fragment amino acids 11–23, Lex-A hybrid (protein)
chain: MKALTARQQEVFDLIRDHISQTGMPPTRAEIAQRLGFRSPNAAEEHLKALARKGVIEIVSGASRGIRLLQEEEEGLPLVGRVAAGEPLLAQQHIEGHYQVDPSLFKPNADFLLRVSGMSMKDIGIMDGDLLAVHKTQDVRNGQVVVARIDDEVTVKRLKKQGNKVELLPENSEFKPIVVDLRQQSFTIEGLAVGVIRNGDWLGDPELCATDEMIP
For B3, the “Binding to β-catenin” value (β-catenin) was “prevent the interaction”.

B4: 17–34: LEF-1 fragment amino acids 17–34, Lex-A hybrid (protein)
chain: MKALTARQQEVFDLIRDHISQTGMPPTRAEIAQRLGFRSPNAAEEHLKALARKGVIEIVSGASRGIRLLQEEEEGLPLVGRVAAGEPLLAQQHIEGHYQVDPSLFKPNADFLLRVSGMSMKDIGIMDGDLLAVHKTQDVRNGQVVVARIDDEVTVKRLKKQGNKVELLPENSEFKPIVVDLRQQSFTIEGLAVGVIRNGDWLATDEMIPFKDEGDPQKEK
With B4 the “Binding to β-catenin” value (β-catenin) was “prevent the interaction”.
